Measurements taken from article PMC8115157.

Columns and labels:
Details in all cases: remark: other sources report otherwise
[1] = biological target: T1, full-length human calcium-sensing receptor (CaSR) (human), P41180; assay: cryo-EM structure; single-particle cryo-EM of CaSR in DDM/CHS, 20 mM HEPES pH 7.5, 150 mM NaCl, 20 mM CaCl2 (three classes: closed-closed CaSR^Ca 3.8 Å, open-closed 5.6 Å, open-open 7.3 Å)
T1 chain: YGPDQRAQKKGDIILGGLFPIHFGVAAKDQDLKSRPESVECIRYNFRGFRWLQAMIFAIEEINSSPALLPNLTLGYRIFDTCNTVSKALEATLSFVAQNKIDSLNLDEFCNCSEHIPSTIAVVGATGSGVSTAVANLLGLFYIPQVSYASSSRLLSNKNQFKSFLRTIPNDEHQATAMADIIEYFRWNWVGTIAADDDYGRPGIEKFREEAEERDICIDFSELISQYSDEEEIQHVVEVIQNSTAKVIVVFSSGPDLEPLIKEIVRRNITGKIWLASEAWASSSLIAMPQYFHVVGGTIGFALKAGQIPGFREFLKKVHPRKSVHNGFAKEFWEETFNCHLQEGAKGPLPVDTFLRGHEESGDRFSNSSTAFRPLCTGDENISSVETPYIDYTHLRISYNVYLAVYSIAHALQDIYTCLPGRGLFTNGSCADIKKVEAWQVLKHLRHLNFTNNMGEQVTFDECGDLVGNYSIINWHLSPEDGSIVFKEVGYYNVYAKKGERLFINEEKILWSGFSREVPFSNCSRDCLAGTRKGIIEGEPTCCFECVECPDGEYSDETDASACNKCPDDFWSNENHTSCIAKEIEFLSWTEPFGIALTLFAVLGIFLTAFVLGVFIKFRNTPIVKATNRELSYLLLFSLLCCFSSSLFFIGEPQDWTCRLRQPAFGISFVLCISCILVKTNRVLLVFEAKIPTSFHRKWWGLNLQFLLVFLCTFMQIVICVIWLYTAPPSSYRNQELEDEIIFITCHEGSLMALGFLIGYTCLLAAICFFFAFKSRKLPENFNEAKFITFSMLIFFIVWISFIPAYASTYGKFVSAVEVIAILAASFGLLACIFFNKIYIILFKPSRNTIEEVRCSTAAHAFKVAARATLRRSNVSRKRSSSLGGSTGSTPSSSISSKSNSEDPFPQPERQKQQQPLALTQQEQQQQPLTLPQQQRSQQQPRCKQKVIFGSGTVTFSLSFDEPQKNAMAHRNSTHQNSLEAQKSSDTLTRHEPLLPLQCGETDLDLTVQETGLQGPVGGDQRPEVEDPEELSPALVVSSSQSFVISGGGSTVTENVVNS

[2] = biological target: T1, full-length human calcium-sensing …; assay: cryo-EM structure; single-particle cryo-EM of CaSR in DDM/CHS, 20 mM HEPES pH 7.5, 150 mM NaCl, with 10 mM L-Trp and 10 mM CaCl2 (active state, CaSR^Acc); 3.5 Å
[3] = biological target: T1, full-length human calcium-sensing …; assay: cryo-EM structure; single-particle cryo-EM of Ca^2+-free CaSR in DDM/CHS, 20 mM HEPES pH 7.5, 150 mM NaCl, 5 mM EGTA, with 10 mM L-Trp (CaSR^Trp); 4.4 Å
[4] = biological target: T1, full-length human calcium-sensing …; assay: cryo-EM structure; single-particle cryo-EM of CaSR in DDM/CHS, 20 mM HEPES pH 7.5, 150 mM NaCl, 5 mM EDTA (inactive state; three classes Icc 4.5 Å, Ioc 5.7 Å, Ioo 6.8 Å)

Measured: stoichiometry N

B1: full-length human calcium-sensing receptor (CaSR), P41180 20-1078 (receptor)
chain: YGPDQRAQKKGDIILGGLFPIHFGVAAKDQDLKSRPESVECIRYNFRGFRWLQAMIFAIEEINSSPALLPNLTLGYRIFDTCNTVSKALEATLSFVAQNKIDSLNLDEFCNCSEHIPSTIAVVGATGSGVSTAVANLLGLFYIPQVSYASSSRLLSNKNQFKSFLRTIPNDEHQATAMADIIEYFRWNWVGTIAADDDYGRPGIEKFREEAEERDICIDFSELISQYSDEEEIQHVVEVIQNSTAKVIVVFSSGPDLEPLIKEIVRRNITGKIWLASEAWASSSLIAMPQYFHVVGGTIGFALKAGQIPGFREFLKKVHPRKSVHNGFAKEFWEETFNCHLQEGAKGPLPVDTFLRGHEESGDRFSNSSTAFRPLCTGDENISSVETPYIDYTHLRISYNVYLAVYSIAHALQDIYTCLPGRGLFTNGSCADIKKVEAWQVLKHLRHLNFTNNMGEQVTFDECGDLVGNYSIINWHLSPEDGSIVFKEVGYYNVYAKKGERLFINEEKILWSGFSREVPFSNCSRDCLAGTRKGIIEGEPTCCFECVECPDGEYSDETDASACNKCPDDFWSNENHTSCIAKEIEFLSWTEPFGIALTLFAVLGIFLTAFVLGVFIKFRNTPIVKATNRELSYLLLFSLLCCFSSSLFFIGEPQDWTCRLRQPAFGISFVLCISCILVKTNRVLLVFEAKIPTSFHRKWWGLNLQFLLVFLCTFMQIVICVIWLYTAPPSSYRNQELEDEIIFITCHEGSLMALGFLIGYTCLLAAICFFFAFKSRKLPENFNEAKFITFSMLIFFIVWISFIPAYASTYGKFVSAVEVIAILAASFGLLACIFFNKIYIILFKPSRNTIEEVRCSTAAHAFKVAARATLRRSNVSRKRSSSLGGSTGSTPSSSISSKSNSEDPFPQPERQKQQQPLALTQQEQQQQPLTLPQQQRSQQQPRCKQKVIFGSGTVTFSLSFDEPQKNAMAHRNSTHQNSLEAQKSSDTLTRHEPLLPLQCGETDLDLTVQETGLQGPVGGDQRPEVEDPEELSPALVVSSSQSFVISGGGSTVTENVVNS
modifications: here or on the partner: N-linked glycans (N-acetylglucosamine built) at N261, N287, N446, N468, N488 and N541; N-linked glycans (N-acetylglucosamine built) at N261, N287, N446, N468, N488 and N541
2: [1] | [2] | [3] | [4]
